From patent publication US7029700B2, “Micronized freeze-dried particles” (Brown University Research Foundation, priority 2000, dated 2006)

Tests used:
[1] = hGH aggregation during FLM, SEC-HPLC; format: physicochemical
From the text: This frozen emulsion was then lyophilized for 48 hrs to remove both the aqueous and organic solvent.

[2] = Oral GH delivery, serum hGH by ELISA; format: in vivo; details: rats, single oral dose by gavage in corn oil
Method: CD male rats (250 to 300 g) were obtained from Charles River Laboratories. Group 1 was fed 1.24 mg of stock GH emulsified in 1 ml of USP corn oil; Group 2 was fed 50 mg of PIN microspheres (2B43099-2.47% Zn-GH in PLGA) in 1 ml of corn oil; Group 3 was fed 50 mg of PIN microspheres (2B51799 - 2.47% Stock GH, 16% FeO in PLGA) in 1 ml of corn oil. Microspheres were suspended in corn oil by vortexing followed by brief (5 s) probe sonication. Stock GH was similarly emulsified in corn oil by vortexing and probe sonication. Animals were fasted overnight, briefly anesthetized with methoxyfluorane, and formulations fed via gavage with an 18-G stainless steel feeding tube and serum from all animals obtained according to the following schedule: −1 hr (pre-feeding control), 0.5 hr, 1 hr, 2 hr, 3 hr, 4 hr, 6 hr, 24 hr, 48 hr, and 72 hr post-feeding. Serum samples obtained via tail bleeding were analyzed for hGH using the hGH specific ELISA (DSL Inc, Webster. Tex.) according to manufacturer's protocols.

## hGH: Stock human growth hormone (20 mg/ml) incorporated into PLGA 50:50 by FLM under varied conditions
[1]; ethyl acetate, stock GH containing 0.2% F127, agitation time 15 s
  aggregation of best formulation combination: 0.7%
[1]; ethyl acetate, 15 s vortex, 0.05% F127 + T20, 24 hr
  Percent Aggregation (SEC-HPLC): 1.9%
[1]; ethyl acetate, 15 s vortex, 0.2% F127 + T20, 1 hr
  Percent Aggregation (SEC-HPLC): 1.0/1.0%
[1]; ethyl acetate, 15 s vortex, 0.2% F127 + T20, 24 hr
  Percent Aggregation (SEC-HPLC): 1.0/1.0%
[1]; ethyl acetate, 15 s vortex, 0.2% F127, 1 hr
  Percent Aggregation (SEC-HPLC): 0.7/0.7%
[1]; ethyl acetate, 15 s vortex, 0.2% F127, 24 hr
  Percent Aggregation (SEC-HPLC): 0.7/0.7%
[1]; ethyl acetate, 60 s vortex, 0.05% F127 + T20, 1 hr
  Percent Aggregation (SEC-HPLC): 0.9%
[1]; ethyl acetate, 60 s vortex, 0.05% F127 + T20, 24 hr
  Percent Aggregation (SEC-HPLC): 1.0%
[1]; ethyl acetate, 60 s vortex, 0.05% F127, 24 hr
  Percent Aggregation (SEC-HPLC): 2.0%
[1]; ethyl acetate, 60 s vortex, 0.2% F127 + T20, 1 hr
  Percent Aggregation (SEC-HPLC): 1.1/1.1%
[1]; ethyl acetate, 60 s vortex, 0.2% F127 + T20, 24 hr
  Percent Aggregation (SEC-HPLC): 1.1/1.1%
[1]; ethyl acetate, 60 s vortex, 0.2% F127, 1 hr
  Percent Aggregation (SEC-HPLC): 1.5%
[1]; ethyl acetate, 60 s vortex, 0.2% F127, 24 hr
  Percent Aggregation (SEC-HPLC): 1.7%
[1]; methylene chloride, 15 s vortex, 0.05% F127 + T20, 1 hr
  Percent Aggregation (SEC-HPLC): 2.2%
[1]; methylene chloride, 15 s vortex, 0.05% F127 + T20, 24 hr
  Percent Aggregation (SEC-HPLC): 2.7%
[1]; methylene chloride, 15 s vortex, 0.05% F127, 1 hr
  Percent Aggregation (SEC-HPLC): 2.0%
[1]; methylene chloride, 15 s vortex, 0.05% F127, 24 hr
  Percent Aggregation (SEC-HPLC): 4.5%
[1]; methylene chloride, 15 s vortex, 0.2% F127 + T20, 1 hr
  Percent Aggregation (SEC-HPLC): 3.7%
[1]; methylene chloride, 15 s vortex, 0.2% F127 + T20, 24 hr
  Percent Aggregation (SEC-HPLC): 8.8%
[1]; methylene chloride, 15 s vortex, 0.2% F127, 1 hr
  Percent Aggregation (SEC-HPLC): 2.4%
[1]; methylene chloride, 15 s vortex, 0.2% F127, 24 hr
  Percent Aggregation (SEC-HPLC): 5.0%
[1]; methylene chloride, 60 s vortex, 0.05% F127 + T20, 1 hr
  Percent Aggregation (SEC-HPLC): 4.4%
[1]; methylene chloride, 60 s vortex, 0.05% F127 + T20, 24 hr
  Percent Aggregation (SEC-HPLC): 11.4%
[1]; methylene chloride, 60 s vortex, 0.05% F127, 24 hr
  Percent Aggregation (SEC-HPLC): 4.8%
[1]; methylene chloride, 60 s vortex, 0.2% F127 + T20, 1 hr
  Percent Aggregation (SEC-HPLC): 10.2%
[1]; methylene chloride, 60 s vortex, 0.2% F127 + T20, 24 hr
  Percent Aggregation (SEC-HPLC): 12.9%
[1]; methylene chloride, 60 s vortex, 0.2% F127, 1 hr
  Percent Aggregation (SEC-HPLC): 4.2%
[1]; methylene chloride, 60 s vortex, 0.2% F127, 24 hr
  Percent Aggregation (SEC-HPLC): 7.0%

## stock GH: 1.24 mg of stock GH emulsified in 1 ml of USP corn oil
[2]
  serum hGH Cmax: 3.37 ± 2.14 ng/mL
